Patent publication US20200040045, “CARBOHYDRATE PRODUCING PLANT MATERIAL” (GREEN RICE SWEDEN AB, published 2020)

Columns and labels:
SUSIBA1 [1] = molecular target: SUSIBA1 (Hordeum vulgare); experiment: EMSA; conditions: tags: overexpressed in and purified from E. coli; label: 32P; second strand printed as 3'-5' complement, annealed duplex
Procedure: (§1) Bars in (A-D)=5 μm and in (K-M)=100 μm. One-way ANOVA was used (Error bars show s.d. and **p≤0.01 between heat-killed background and living agrobacteria).
(§2) Having identified SUSIBA1 p, the potential involvement of SUSIBA1 in fructan synthesis was investigated. […] Electrophoretic mobility shift assay (EMSA) was used to study the in vitro interaction between SUSIBA1 and the promoter of 6-SFT that encodes a key enzyme in synthesis of fructan in barley. EMSA was performed as described previously using overexpressed and purified SUSIBA1 from E. coli (FIG. 8E to 8J). In accordance with the hallmark of WRKY proteins, it was shown that the […] TF bound to the W-box DNA cis-element. […] Examination of the 6-SFT promoter led to identification of two SUREa, three W-box and one SP8a element (FIG. 8E). Using different combinations of the restriction enzymes BstXI, PvulI and SpeI, the full-length promoter (fragment 1) was resolved into four fragments (fragments 2-5, FIG. 8E). […] To confirm the specificity of the binding activity, the element sequences (FIG. 8I) were engineered and the binding of SUSIBA1 was tested. […] No binding activity of SUSIBA1 to the engineered element sequences, i.e., SP8a M, W-box M and SUREa M4 also indicated the reliability of EMSA in the assay system (FIG. 8J). […]

SUSIBA1 [2] = molecular target: SUSIBA1 (Hordeum vulgare); experiment: EMSA; A-stretch substitution; conditions: tags: overexpressed in and purified from E. coli; label: 32P
Procedure: as §1, §2

SUSIBA1 [3] = molecular target: SUSIBA1 (Hordeum vulgare); experiment: EMSA; 0.0125-0.2 ug SUSIBA1 prevents binding of 0.2 ug SUSIBA2 to the W-box; conditions: tags: overexpressed in and purified from E. coli; label: 32P
Procedure: (§3) The infiltrated leaves were incubated at 40 mM Suc. Two days after infiltration and incubation, qPCR analysis was performed. (C) Transcript levels of SUSIBA2 after co-infiltration of agrobacteria containing p35S:SUSIBA2 with the double-stranded decoy oligoes upon antisense inhibition of SUSIBA1. (D) Transcript levels of SUSIBA2 after infiltration of agrobacteria containing p35S:SUSIBA2 alone or the double-stranded decoy oligoes alone at 100 mM Suc. The infiltrated leaves were incubated at 100 mM Suc for two days before analysis. Significant differences are analyzed statistically between p35S:SUSIBA1 and decoy oligoes, and indicated by asterisks (**p≤0.01) in (B), and between p35:SUSIBA2 and decoy oligoes in (C), and between p35:SUSIBA2 and decoy oligoes in (D). One-way ANOVA was used (Error bars show s.d.) Three independent experiments were performed (n=3). (E) EMSA analysis of competitive activity to the W-box in the SUSIBA2 promoter between SUSIBA2 and SUSIBA1. EMSA of binding activity to the W-box of SUSIBA2 (left panel) and SUSIBA1 (middle panel) and SUSIBA2 and SUSIBA1 in competing (right panel). SUSIBA2 and SUSIBA1 were overexpressed and purified from E. coli and challenged with two oligoes. […]

SUSIBA2 = SUSIBA2 (Hordeum vulgare, UniProt Q6VWJ6 SEQ:1-573); experiment: EMSA; 0.2 ug SUSIBA2; displaced by SUSIBA1; conditions: tags: overexpressed and purified; label: 32P
SUSIBA2, sequence (Q6VWJ6 whole entry): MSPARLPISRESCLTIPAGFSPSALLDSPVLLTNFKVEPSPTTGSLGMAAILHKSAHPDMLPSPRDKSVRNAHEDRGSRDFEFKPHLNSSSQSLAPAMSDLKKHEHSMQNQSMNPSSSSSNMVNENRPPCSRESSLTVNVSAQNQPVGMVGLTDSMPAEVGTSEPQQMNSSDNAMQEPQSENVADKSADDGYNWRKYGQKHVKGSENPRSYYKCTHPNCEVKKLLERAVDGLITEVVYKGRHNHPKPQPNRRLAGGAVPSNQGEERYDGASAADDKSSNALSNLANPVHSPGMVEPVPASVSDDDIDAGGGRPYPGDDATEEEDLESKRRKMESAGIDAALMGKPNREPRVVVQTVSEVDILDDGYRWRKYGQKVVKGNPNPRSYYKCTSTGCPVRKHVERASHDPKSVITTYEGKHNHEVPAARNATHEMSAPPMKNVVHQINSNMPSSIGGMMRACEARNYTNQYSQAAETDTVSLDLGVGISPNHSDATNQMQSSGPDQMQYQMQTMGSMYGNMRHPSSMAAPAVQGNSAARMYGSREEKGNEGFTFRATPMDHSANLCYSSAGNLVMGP
Procedure: as §3

SUSIBA1 (Hordeum vulgare), sequence (Q6VWJ6 293-573): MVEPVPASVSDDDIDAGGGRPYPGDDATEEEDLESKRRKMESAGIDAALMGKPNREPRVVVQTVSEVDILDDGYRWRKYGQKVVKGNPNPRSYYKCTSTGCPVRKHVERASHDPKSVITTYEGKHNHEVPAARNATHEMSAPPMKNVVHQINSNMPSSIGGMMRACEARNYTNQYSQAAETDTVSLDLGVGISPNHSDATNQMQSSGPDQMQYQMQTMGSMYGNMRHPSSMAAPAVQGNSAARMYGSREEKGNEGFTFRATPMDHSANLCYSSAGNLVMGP

B1: 6-SFT SP8a (dsDNA)
DNA 1: CTGTACTGTGTTTTTAGCCT
DNA 2: AGGCTAAAAACACAGTACAG
binding result (SUSIBA1 [1]): binds

B2: SUREa M4 (dsDNA)
DNA 1: CAAAAAAAAAAAAAAAAAAC
DNA 2: GTTTTTTTTTTTTTTTTTTG
binding result (SUSIBA1 [2]): no binding

B3: 6-SFT SUREa (dsDNA)
DNA 1: CACACATGGCACGCCAAAAC
DNA 2: GTTTTGGCGTGCCATGTGTG
binding result (SUSIBA1 [1]): binds

B4: SUSIBA2 promoter W-box oligo (dsDNA)
DNA 1: TAGGTCGTCAATTTGACTTATATAAAATAT
DNA 2: ATATTTTATATAAGTCAAATTGACGACCTA
binding result (SUSIBA1 [3]): binds
binding result (SUSIBA2): binds
